Publication PMC8503523, “Lilium regale Wilson WRKY2 Regulates Chitinase Gene Expression During the Response to the Root Rot Pathogen Fusarium oxysporum”
Where a chain is given by its changes, count along the chain named.

What was measured:
LrWRKY2 [1] = target: T1, LrWRKY2 (Lilium regale Wilson, UniProt A0A894THB0 1-343); assay: EMSA; 0.5 ug protein in 20 uL with 7 uL binding buffer (as printed: 100 mM Tris, 500 mM KCl, 10 mM DTT, 50% glycerol, 100 mM MgCl2, 1% NP-40, 1 M KCl, 200 mM EDTA, 1); conditions: protein: recombinant, tags: His (pET-32a fusion)
T1 sequence: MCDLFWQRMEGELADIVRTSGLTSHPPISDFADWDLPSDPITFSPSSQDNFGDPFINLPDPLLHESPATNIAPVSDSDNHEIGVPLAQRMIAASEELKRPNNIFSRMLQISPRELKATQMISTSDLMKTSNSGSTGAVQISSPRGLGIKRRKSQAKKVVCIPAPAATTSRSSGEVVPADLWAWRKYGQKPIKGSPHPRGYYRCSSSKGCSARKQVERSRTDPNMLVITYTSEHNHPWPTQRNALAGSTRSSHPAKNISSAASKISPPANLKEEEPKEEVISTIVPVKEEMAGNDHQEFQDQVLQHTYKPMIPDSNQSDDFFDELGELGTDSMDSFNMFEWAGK

LrWRKY2 [2] = target: T1, LrWRKY2; assay: competition EMSA; 50-fold excess over biotin-labeled N1; shift less intense; 0.5 ug protein in 20 uL with 7 uL binding buffer (as printed: 100 mM Tris, 500 mM KCl, 10 mM DTT, 50% glycerol, 100 mM MgCl2, 1% NP-40, 1 M KCl, 200 mM EDTA, 1); conditions: protein: recombinant; tags: His (pET-32a fusion); (only one strand printed; duplex implied by 50-bp)

B1: LrCHI2 promoter W-box probe (dsDNA)
DNA 1: GGCAAACTTTTAGGCCAAGAGATTGACTAGAACCCTCACAATCTCTATAT
DNA 2: ATATAGAGATTGTGAGGGTTCTAGTCAATCTCTTGGCCTAAAAGTTTGCC
B1: binds (LrWRKY2 [1]; (only one strand printed; duplex implied by 50-bp)).

B2: LrCHI2 promoter W-box competitor, unlabeled (dsDNA)
DNA 1: B1 DNA 1
DNA 2: B1 DNA 2
B2: binds (LrWRKY2 [2]).

B3: LrCHI2 promoter mutant W-box probe (dsDNA)
DNA 1: B1 DNA 1 with G25A, A26C
DNA 2: B1 DNA 2 with T25G, C26T
B3: no binding (LrWRKY2 [1]).
